Measurements taken from patent publication US20210230287A1.

Key:
[1] = biological target: human 4-1BB, full-length, on cells (human) (UniProt Q07011); assay: flow cytometry on human 4-1BB-expressing CHO-K1 cells, PE goat anti-human IgG Fc, MFI
[2] = biological target: cynomolgus 4-1BB extracellular domain, His tag (cynomolgus) (UniProt A9YYE7); assay: SPR, Biacore T200; antibody captured on Protein G chip, cynomolgus 4-1BB ECD.His as analyte
cynomolgus 4-1BB extracellular domain, His tag (cynomolgus), sequence (A9YYE7 entry or part of it): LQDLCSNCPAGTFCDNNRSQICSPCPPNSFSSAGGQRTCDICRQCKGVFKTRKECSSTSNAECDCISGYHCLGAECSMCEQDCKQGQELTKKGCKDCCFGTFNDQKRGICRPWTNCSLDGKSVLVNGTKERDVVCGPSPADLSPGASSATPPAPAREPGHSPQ

BMK4.hIgG2L(Pfizer) (antibody), sequence (VH): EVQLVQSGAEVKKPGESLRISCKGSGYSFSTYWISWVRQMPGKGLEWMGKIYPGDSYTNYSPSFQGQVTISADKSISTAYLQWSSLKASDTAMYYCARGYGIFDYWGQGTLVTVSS
BMK4.hIgG2L(Pfizer) (antibody), sequence (VL): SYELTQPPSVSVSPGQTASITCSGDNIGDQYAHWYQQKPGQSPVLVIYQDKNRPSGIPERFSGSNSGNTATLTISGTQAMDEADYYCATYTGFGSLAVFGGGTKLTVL
human 4-1BB, full-length, on cells (human), sequence (Q07011 24-255 limits assumed): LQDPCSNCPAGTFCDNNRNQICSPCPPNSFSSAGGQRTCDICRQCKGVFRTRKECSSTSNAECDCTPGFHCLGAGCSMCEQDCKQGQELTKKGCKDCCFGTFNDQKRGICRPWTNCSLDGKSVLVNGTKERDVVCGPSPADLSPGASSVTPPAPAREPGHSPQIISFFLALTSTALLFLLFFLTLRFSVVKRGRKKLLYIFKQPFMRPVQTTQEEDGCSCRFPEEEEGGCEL

| EC50 (read off the curve) [1] [nM] | Kd [2] [nM] | Substance |
| --- | --- | --- |
| 0.2 | – | WBP342-BMK3.hIgG4 (antibody) |
| – | 16 | BMK4.hIgG2L(Pfizer) (antibody) |
